From patent publication US20160200831A1 (Sanofi, published 2016)

What follows are binders tested against T1, cynomolgus PAI-1 (cynomolgus monkey (Macaca fascicularis), UniProt P05121 24-402 (human entry)) (assay: Biacore).
T1 construct: produced in-house in E. coli (non-glycosylated); active cyno PAI-1 in the assays; also called cyno PAI-1; cPAI-1
T1 sequence (P05121 other isoform, or with tags, fused parts or gaps limits assumed): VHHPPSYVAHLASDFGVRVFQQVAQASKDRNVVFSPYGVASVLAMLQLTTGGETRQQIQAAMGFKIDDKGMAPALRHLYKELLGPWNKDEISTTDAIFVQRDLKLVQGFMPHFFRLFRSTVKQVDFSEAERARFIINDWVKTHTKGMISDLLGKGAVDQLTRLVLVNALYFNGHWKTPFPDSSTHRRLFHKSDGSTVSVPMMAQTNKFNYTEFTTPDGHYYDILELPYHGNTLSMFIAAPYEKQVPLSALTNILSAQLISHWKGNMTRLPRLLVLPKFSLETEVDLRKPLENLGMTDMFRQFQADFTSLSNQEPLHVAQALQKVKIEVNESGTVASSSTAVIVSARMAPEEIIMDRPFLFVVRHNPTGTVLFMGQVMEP

Binder	binding result
A44-hv1 (antibody, V domains shown, humanized A44, HEK293; also called LC1a x HC1a; variant 1) VH: EMTLKESGPTLVKPTQTLSLTCSVTGDSMTNGYWNWIRKFPGKALEYMGYITYSGSTYYNPSLKGRISITRNTSKNQYYLTLSSVTTVDTATYYCARWHYGSPYYFDYWGQGTTLTVSS VL: DIKMTQSPSSLSASVGDRVTITCKASQDINSYLSWLQQKPGKSPKTLIYRANRSVDGVPSRFSGSGSGQDYSLTISSLQPEDLGIYYCLQYDEFPPTFGGGTKLEIK	binds
A44-hv2 (antibody, V domains shown, humanized A44, HEK293; constant regions as for A44-hv1; also called LC1b x HC1b; variant 2) VH: EMQLQESGPGLVKPSETLSLTCSVTGDSMTNGYWNWIRKFPGKGLEYMGYITYSGSTYYNPSLKGRISITRNTSKNQYYLKLSSVTTADTATYYCARWHYGSPYYFDYWGQGTTLTVSS VL: DIKMTQSPSSVSVSPGQTVTITCKASQDINSYLSWLQQKPGQSPKTLIYRANRSVDGVPSRFSGSGSGQDYSLTISSLQAMDEGIYYCLQYDEFPPTFGGGTKLTIK	binds
A44-hv9 (antibody, V domains shown, humanized A44, HEK293; constant regions as for A44-hv1; also called LC5b x HC5b; variant 9) VH: QMQLQESGPGLVKPSETLSLTCTVSGDSMTNGYWNWIRQPPGKGLEYMGYITYSGSTYYNPSLKSRITISRDTSKNQYSLKLSSVTAADTAVYYCARWHYGSPYYFDYWGQGTLVTVSS VL: DIQMTQSPSSLSASVGDRVTITCKASQDINSYLSWLQQKPGKAPKTLIYRANRSVDGVPSRFSGSGSGQDYTFTISSLQPEDIATYYCLQYDEFPPTFGGGTKVEIK	binds
A44-hv6 (antibody, V domains shown, humanized A44, HEK293; constant regions as for A44-hv1; also called LC3 x HC3; variant 6) VH: QMTLKESGPTLVKPTQTLSLTCSVSGDSMTNGYWNWIRQFPGKALEYMGYITYSGSTYYNPSLKGRITITRDTSKNQYYLTLSSVTTVDTATYYCARWHYGSPYYFDYWGQGTTLTVSS VL: DIKMTQSPSSLSASVGDRVTITCKASQDINSYLSWLQQKPGKSPKTLIYRANRSVDGVPSRFSGSGSGQDYSLTISSLQPEDLATYYCLQYDEFPPTFGGGTKLEIK	binds
A44-hv5 (antibody, V domains shown, humanized A44, HEK293; constant regions as for A44-hv1; also called LC2 x HC2b; variant 5) VH: EMTLKESGPTLVKPTQTLSLTCSVTGDSMTQGYWNWIRKFPGKALEYMGYITYSGSTYYNPSLKGRISITRNTSKNQYYLTLSSVTTVDTATYYCARWHYGSPYYFDYWGQGTTLTVSS VL: DIKMTQSPSSLSASVGDRVTITCKASQDINSYLSWLQQKPGKSPKTLIYRAQRSVEGVPSRFSGSGSGQDYSLTISSLQPEDLGIYYCLQYDEFPPTFGGGTKLEIK	binds
A44-hv7 (antibody, V domains shown, humanized A44, HEK293; constant regions as for A44-hv1; also called LC4 x HC4; variant 7) VH: QMTLKESGPTLVKPTQTLSLTCSVSGESMTQGYWNWIRQFPGKALEYMGYITYSGSTYYNPSLKGRITITRQTSKNQYYLTLSSVTTVETATYYCARWHYGSPYYFDYWGQGTTLTVSS VL: DIKMTQSPSSLSASVGDRVTITCKASQDINSYLSWLQQKPGKSPKTLIYRAQRSVEGVPSRFSGSGSGQDYSLTISSLQPEDLATYYCLQYDEFPPTFGGGTKLEIK	binds
A44-hv4 (antibody, V domains shown, humanized A44, HEK293; constant regions as for A44-hv1; also called LC1a x HC2b; variant 4) VH: EMTLKESGPTLVKPTQTLSLTCSVTGDSMTQGYWNWIRKFPGKALEYMGYITYSGSTYYNPSLKGRISITRNTSKNQYYLTLSSVTTVDTATYYCARWHYGSPYYFDYWGQGTTLTVSS VL: DIKMTQSPSSLSASVGDRVTITCKASQDINSYLSWLQQKPGKSPKTLIYRANRSVDGVPSRFSGSGSGQDYSLTISSLQPEDLGIYYCLQYDEFPPTFGGGTKLEIK	binds
